Results from publication PMC9973331, “DNA Methylation and RNA-DNA Hybrids Regulate the Single-Molecule Localization of a DNA Methyltransferase on the Bacterial Nucleoid”.

Target: T1, DnmA (WT) (Bacillus subtilis, UniProt O31504 1-879)
T1 sequence: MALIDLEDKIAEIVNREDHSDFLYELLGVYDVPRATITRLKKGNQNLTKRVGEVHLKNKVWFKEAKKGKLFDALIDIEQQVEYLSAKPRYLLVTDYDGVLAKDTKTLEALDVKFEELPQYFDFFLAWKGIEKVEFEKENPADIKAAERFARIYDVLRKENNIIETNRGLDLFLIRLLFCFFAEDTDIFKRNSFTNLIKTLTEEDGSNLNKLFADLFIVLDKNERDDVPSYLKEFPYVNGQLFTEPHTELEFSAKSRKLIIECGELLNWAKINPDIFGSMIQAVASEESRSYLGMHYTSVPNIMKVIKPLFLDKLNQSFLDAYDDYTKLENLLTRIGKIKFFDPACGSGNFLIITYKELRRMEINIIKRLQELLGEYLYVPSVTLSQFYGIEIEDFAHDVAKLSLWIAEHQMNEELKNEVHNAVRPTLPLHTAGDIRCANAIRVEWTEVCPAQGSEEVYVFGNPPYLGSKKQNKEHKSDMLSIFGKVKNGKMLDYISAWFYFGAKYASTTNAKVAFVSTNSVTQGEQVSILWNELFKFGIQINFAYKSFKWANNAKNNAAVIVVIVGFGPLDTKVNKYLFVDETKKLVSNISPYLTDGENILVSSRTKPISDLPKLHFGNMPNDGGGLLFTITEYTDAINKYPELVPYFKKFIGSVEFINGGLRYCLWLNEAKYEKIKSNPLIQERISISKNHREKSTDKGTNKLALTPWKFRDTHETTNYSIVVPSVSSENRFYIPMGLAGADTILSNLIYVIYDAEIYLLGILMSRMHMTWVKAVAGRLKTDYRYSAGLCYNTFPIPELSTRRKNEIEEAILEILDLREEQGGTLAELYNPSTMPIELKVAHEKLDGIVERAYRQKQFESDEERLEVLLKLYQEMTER
Assay: EMSA; EMSA: 5x buffer 500 mM Tris-HCl pH 8, 1.25 M NaCl, 10% glycerol (1x: 100 mM Tris, 250 mM NaCl, 2% glycerol), 5 nM probe, 30 min at 25 C; 6% native PAGE in 1x TBE on ice
Conditions: protein: recombinant; tags: His-SUMO tag (pE-SUMO) removed by SUMO protease; label: 5' IRDye700 on strand 1; 5' IRDye800 on strand 2; blunt

B1: unmethylated dsDNA (oTMN67/oTMN68) (dsDNA)
DNA 1: CAAAACAGGATATGAAATAGTATTGGACGAGAGCTTTTTGGTGGCTTATACTATAG
DNA 2: CTATAGTATAAGCCACCAAAAAGCTCTCGTCCAATACTATTTCATATCCTGTTTTG
apparent K (half saturation): 36.8 ± 14.2 nM

B2: methylated dsDNA (oNLF001/oTMN68) (dsDNA)
DNA 1: CAAAACAGGATATGAAATAGTATTGGACGAGAGCTTTTTGGTGGCTTATACTATAG
DNA 2: CTATAGTATAAGCCACCAAAAAGCTCTCGTCCAATACTATTTCATATCCTGTTTTG
modifications: m6A in strand 1 (oNLF001), exact position not visible in printed string; presumably in GACGAG
apparent K (half saturation): 156 ± 76 nM

B3: RNA-DNA hybrid (oTMN67/oJRR271) (DNA:RNA)
DNA: CAAAACAGGATATGAAATAGTATTGGACGAGAGCTTTTTGGTGGCTTATACTATAG
RNA: CUAUAGUAUAAGCCACCAAAAAGCUCUCGUCCAAUACUAUUUCAUAUCCUGUUUUG
modifications: strand 2 is RNA
apparent K (half saturation): 321 ± 16.5 nM
